This note sets out measurements from paper PMC6395645.

Experiment [1] addresses soluble type-I collagen (UniProt P02454). The experiment is described as follows: ELISA; collagen-binding ELISA; soluble type-I collagen immobilised on plates, salivary gland homogenates of 20 TG mosquitoes (hold mDsRed-8H7scFv) applied 1 h at room temperature; quantified against Trx-AAPPex1-4. (In an ELISA, binding on a coated surface is turned into a signal by an enzyme label.)

Experiment [2] shares this target. In words: ELISA; collagen-binding ELISA; soluble type-I collagen immobilised on plates, saliva of 20 TG mosquitoes (holds mDsRed-8H7scFv) applied 1 h at room temperature; quantified against Trx-AAPPex1-4.
For experiment [3] the target is unchanged. In words: ELISA; collagen-binding ELISA; soluble type-I collagen immobilised on plates, salivary gland homogenates of 20 WT mosquitoes applied 1 h at room temperature; quantified against Trx-AAPPex1-4.
Experiment [4] has the same target. In words: ELISA; collagen-binding ELISA; soluble type-I collagen immobilised on plates (7.5 ug/ml, 100 ul/well), saliva of 20 WT mosquitoes applied 1 h at room temperature; quantified against Trx-AAPPex1-4.

soluble type-I collagen, sequence (P02454 152-1207, chain 1 of 2): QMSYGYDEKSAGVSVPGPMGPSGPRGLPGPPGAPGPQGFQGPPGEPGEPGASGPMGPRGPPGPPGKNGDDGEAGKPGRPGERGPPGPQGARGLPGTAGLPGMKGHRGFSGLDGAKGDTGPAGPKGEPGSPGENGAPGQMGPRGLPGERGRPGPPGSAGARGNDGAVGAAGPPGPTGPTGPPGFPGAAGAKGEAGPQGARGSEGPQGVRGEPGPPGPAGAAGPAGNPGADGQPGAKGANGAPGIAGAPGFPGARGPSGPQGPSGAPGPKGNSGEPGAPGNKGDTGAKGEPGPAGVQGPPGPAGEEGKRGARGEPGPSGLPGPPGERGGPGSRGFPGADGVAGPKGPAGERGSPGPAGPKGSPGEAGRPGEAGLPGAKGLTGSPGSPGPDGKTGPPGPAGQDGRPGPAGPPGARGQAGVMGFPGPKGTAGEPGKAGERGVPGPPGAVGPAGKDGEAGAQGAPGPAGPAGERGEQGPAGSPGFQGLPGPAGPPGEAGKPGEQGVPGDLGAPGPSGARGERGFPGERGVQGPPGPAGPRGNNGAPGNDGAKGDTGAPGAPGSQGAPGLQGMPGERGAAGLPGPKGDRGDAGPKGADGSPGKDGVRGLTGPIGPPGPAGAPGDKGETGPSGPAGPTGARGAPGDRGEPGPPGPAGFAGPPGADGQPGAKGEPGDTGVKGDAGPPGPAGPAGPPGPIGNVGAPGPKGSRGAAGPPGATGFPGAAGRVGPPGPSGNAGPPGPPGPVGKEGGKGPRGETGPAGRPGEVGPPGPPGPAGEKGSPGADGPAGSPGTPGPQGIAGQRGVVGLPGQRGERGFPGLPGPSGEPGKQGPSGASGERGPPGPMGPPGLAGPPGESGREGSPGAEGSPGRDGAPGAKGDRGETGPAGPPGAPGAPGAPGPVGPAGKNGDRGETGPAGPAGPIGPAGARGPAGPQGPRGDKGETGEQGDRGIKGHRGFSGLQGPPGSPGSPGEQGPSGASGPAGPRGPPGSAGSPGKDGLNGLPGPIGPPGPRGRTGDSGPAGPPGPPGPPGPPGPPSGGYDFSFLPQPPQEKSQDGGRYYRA
soluble type-I collagen, sequence (P02466 86-1125, chain 2 of 2, further chain): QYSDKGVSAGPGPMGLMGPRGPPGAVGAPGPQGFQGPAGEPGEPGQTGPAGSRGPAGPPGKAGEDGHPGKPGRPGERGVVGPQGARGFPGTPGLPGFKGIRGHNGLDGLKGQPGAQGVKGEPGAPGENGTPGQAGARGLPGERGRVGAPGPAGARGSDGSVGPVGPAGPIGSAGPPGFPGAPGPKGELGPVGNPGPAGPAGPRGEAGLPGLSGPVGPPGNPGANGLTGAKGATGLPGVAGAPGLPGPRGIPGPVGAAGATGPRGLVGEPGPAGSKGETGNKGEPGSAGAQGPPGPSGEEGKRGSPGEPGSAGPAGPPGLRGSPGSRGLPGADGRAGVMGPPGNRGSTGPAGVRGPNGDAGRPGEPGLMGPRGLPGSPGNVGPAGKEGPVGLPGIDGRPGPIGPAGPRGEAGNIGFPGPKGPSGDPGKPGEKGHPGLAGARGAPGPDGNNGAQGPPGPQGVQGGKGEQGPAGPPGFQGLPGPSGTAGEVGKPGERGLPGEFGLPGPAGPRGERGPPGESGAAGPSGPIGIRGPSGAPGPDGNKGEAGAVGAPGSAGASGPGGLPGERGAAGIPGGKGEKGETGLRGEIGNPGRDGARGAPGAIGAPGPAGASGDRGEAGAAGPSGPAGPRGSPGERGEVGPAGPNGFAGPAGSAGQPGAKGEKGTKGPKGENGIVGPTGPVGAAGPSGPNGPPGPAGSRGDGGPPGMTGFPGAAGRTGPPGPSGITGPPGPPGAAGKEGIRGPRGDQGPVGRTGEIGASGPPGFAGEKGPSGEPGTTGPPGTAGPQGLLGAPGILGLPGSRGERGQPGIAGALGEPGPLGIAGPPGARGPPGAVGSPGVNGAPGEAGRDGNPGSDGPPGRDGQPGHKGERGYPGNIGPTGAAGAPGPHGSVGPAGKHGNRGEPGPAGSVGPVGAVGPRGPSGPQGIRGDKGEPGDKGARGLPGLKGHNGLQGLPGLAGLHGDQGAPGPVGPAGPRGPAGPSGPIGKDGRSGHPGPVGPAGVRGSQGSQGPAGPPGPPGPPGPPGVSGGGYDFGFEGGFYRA

Consider “Anopheline antiplatelet protein (AAPP) (from UniProt Q7YT37 20-269) (natural protein)”, for which, in the experiment with soluble type-I collagen [1], the amount of AAPP capable of binding to collagen, with mDsRed-8H7scFv present (salivary glands of 20 TG-03 mosquitoes) stood at 11.4 ng; the amount of AAPP capable of binding to collagen, with mDsRed-8H7scFv present (salivary glands of 20 TG-30 mosquitoes) came to 9.95 ng; the amount of AAPP capable of binding to collagen, with mDsRed-8H7scFv present (salivary glands of 20 TG-37 mosquitoes) amounted to 10.5 ng. The substance also came in with an amount of AAPP capable of binding to collagen, with mDsRed-8H7scFv present (saliva of 20 mosquitoes of each TG line) in the experiment with soluble type-I collagen [2] below 0.069 ng. In the experiment with soluble type-I collagen [3], this substance gave an amount of AAPP capable of binding to collagen (salivary glands of 20 WT mosquitoes) of 233 ng. Further, the amount of AAPP capable of binding to collagen (saliva of 20 WT mosquitoes) in the experiment with soluble type-I collagen [4] came out at 28.4 ng.
